Data reported in the supplement of paper PMC9170038.

System: K4 kissing-loop RNA reporter
Assay: apparent KD of K4 kissing-loop reporter; higher = weaker reporter binding
Conditions: Eterna round: R107; input ligand: none
Method: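 RNA-MaP round R107: designed RNA switches with theophylline, tryptophan, arginine or FMN aptamers are transcribed on-chip within common flanks. They are titrated with a labelled K4 kissing-loop RNA reporter in RNA-MaP buffer (100 mM Tris pH 7.5, 80 mM KCl, 4 mM MgCl2), without ligand or with the indicated ligand. Median apparent KD per design.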
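Further: bound reporter read as fluorescence of individual clusters on recovered sequencing chips by microscopy, with normalized cluster intensities fitted with a binding model.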

Sequence	apparent KD of K4 kissing-loop reporter
UUUAUAAAGUCGGCCGCCACUGGAUUUAUAUUUGUUUAGUCUGGAUCAAAGUGAUGUUUUGAGUCCAGGACCGGGACAUUUGUUA [whbob_Ex_Tryp_B_w36]	93.5 nM
AGAGAUAUAUGAGGAUAUGAGAUAGUUAAUGAGUGAGUUAUAGUGUUGUUUGGUUAGUGAUGUUAUUUAGAAGGCGUGAGUGAUG [immumullin]	110 nM
AUUAAUAUCACGGCCGCCACUGUAUAUUGUUUUUAUAUUUAGAAUAAUUGCCAGUGAUGUUGGAACAGGACCGGGUGAGUUUAUA [#28 K4 Tryptophan B Same State]	626 nM
UUAGUCUAGAGAAGGAGCGCAGUGAUGUUGCGAAUAAUAAUAAUAAUAAAUAAAUAAUCGAUGCAGGUAGGUCGCUCUAGACAUU [AK1 Exc Arginine B]	288 nM
GAUAUAGUGAUGUUAUAUACUGAUAGACAACGAGGACCGGUACGGCCGCCACUCGAGAGGGUGAAAAUGAUGAUAAAAUAAUAAU [#01 K4 Tryptophan A Exclusion]	341 nM
CCAACGUGAAAAGGAUAUCGCGAUGUGCACGACUAGUGAUGUUAGGAGAGGCUCGUUGAAUUGUACCGAGAAGGUUUUGAGUGGG [theeternabot_sameState_KL_FMN_B_16]	240 nM
GCGGCGGGCCAAGGAUAUAUAUUGGAGUGAUGUUGUUCAUUUAUUUGAGCUAGUGAUGUUGGUCAAAUAGAAGGUGGCCCGCCGC [whbob_Ex_FMNB__2th217]	59.3 nM
AGACUACUGAUAGGAUAUAACAUCCUAGUCGUAUACCGAAAGGUAUACGAUUCCCUUCUAGUGAUGUUAGAAGGGUCGGUAGUCA [Omei KL FMN B Exc B v12]	71.3 nM
CGUUUAUUGCAGGAUACCAGUACCCAUUAUGUACGUUUAUAGUAGAGUGAUGUUCUAAAGUACCCUUGGCAGCUUCCCGUGACCC [#22 K4 Theophylline B Exclusion]	142 nM
AGUGUGCAAAAGCACACUCAGAACAAGGACAAGGAUAUCUACUAAUAGAGAAGGUGUCCUUUCCUUAGUGAUGUUAAGGAUCUGA [Omei KL FMN A SS D v4]	596 nM
UAGUCCUAGUGAUCCUUAUCAAGUGGUGGGCGAGGACCGGUACGGCCGCCACUCGAAUAUGCAGUGAUGUUGUAAUCCGGAUAAU [Exclusion - Tryptophan A (Freestyle 10)]	727 nM
CCCUCACGAGUGAUGUUCGUAGGGUACAGUCAGGAUAUCAUGCGGUUGAGAAGGGACAGAGAGGGCGGCGGCGGGUUGCUCCUCU [Beeded]	281 nM
GGUAGCAUGGCGGCCGCCACUGGAGAGUGAUGUUCUCCACUAGGUUACAACGCCGGACAGUCCACCAGGACCGGGCCAUGCUACC	131 nM
UGACUGGACUGAAGGAGCGGGCGAGACAAAGUCUCGAACUCCUAGUGAUGUUAGGAAAUAACCCAGGUAGGUCGCAGUCUAGUCU [ArgBS 7 #SwitchBubble #StaticStem #DoubleMagnet]	128 nM
UUAGAGAUCUCAGGAUAUCAGUGAUGUUGGUAUCAAGAUCUGAGAUAGAAUUCUAUCUCAGAUCAAUGAGAAGGGAGAUCUCAUU [AK3.3 Exc FMN B]	105 nM
GGGCGUGGCGCGGCCGCCACUGGGCCUGGGCGCUCGCUGAGUGAUGUUCGUCGGCGGCUGGGUCGUAGGACCGGGUGCUGGUUGG [BDazzled - #7 SS Tryptophan B]	438 nM

Same assay, conditions: Eterna round: R107; input ligand: theophylline 20 uM

Sequence	apparent KD of K4 kissing-loop reporter
AAAAGAAGAAGUGAUACCAGACAAGCAGUGAUGUUGCGCCAAAGUGAGUGAUGUUCACCAGUCCCUUGGCAGCACAUGCCAAAAG [Same State Theophylline B GF 5]	839 nM
CAUGGAGUGAUGCUCCAUGGUCGGGCUUGGCAGGAUAUGGGAUCUUCCAGAAGGGCCGAUCCCGGCGAGUGAUGUUCGCUGGUCU [Exclusion FMN A GF 28]	433 nM
CACUCGGUAUCAGAUACCAGACUAACGAUACCGAGUGUAUCGGGUAGUGAUGUUACCAUAGUCCCUUGGCAGCUGAUAUUCCCUA [Theo B SS t9a]	210 nM
UUGUUUGGUUGAGAGGUUGGGCGAGAUGAUACCAGUAUAUAAGAAUACCCUUGGCAGCAUAAGAAAGAUAUAGUGAUGUUGUAUA [SSTheophA.M]	672 nM
AUAUGCAGGAGAAGGAGCGUCGUUGCAAGUGAUGUUUGCAAGCGAGCUUACUAUAUACGACGACAGGUAGGUCGCUCCUGCGUAA [Arg B Ex t2]	58.1 nM
UUAGGAGUGGAAGGAUAUCCUGGUGUGGGUGAUGUUAGUGAUGUUGGAGGUGCAGUGAUGUUGCGCGGAGAAGGUCCGGUGUUGA [BDazzled - #5 - Exc. FMN B]	435 nM
UUAGCGACAAGUCAGAUUCUGACAAUUGAUACCAGAUAGAAUUCUAUCCCUUGGCAGCAGUGAUGUUGUUGCAAUAAGUCGCAUU [AK2 Exc Theophylline A]	282 nM
CCGUGGAGUGAUGUUCCACGUACUACGGAUACCAGCUUUGCCAAAGGCCCUUGGCAGCCGCACGGCUCAGUGAUGUUGGGUCGCG [Same State Theophylline A G10]	156 nM
GUAGAUAGGCAACAUCCCUAGUCUACAGACUAGGAUAUCAGGAAACUGAGAAGGAGUCUCCUUGCAGUGAUGUUGCAAGAAUAAU [[F]''-[K]'-[F]'-[F1]-[F2]-[K1]-[K2]_Design5]	83.6 nM
UGACUACAGGAAUAAUAAUCCUAGUGAUGUUAGGAUAUGCUGAUAAGCAGAAGGAACUGAGAUCGAAAGAUCUCAAAAGUAGUCU [FmnAX 28 Mat Inspired #SwitchBubble #StaticStem #K4Early]	106 nM
CGGAACGCAUCGGCCGCCACUUUUAUCUGCAGUGAUGUUGCAGUAUCCGAGCAAGGCUGUUGUGAAAGGACCGGGAUGGUCCGUU [Tibeberi]	97.4 nM
AACUCUCAGACACUUGAGUGAUGUUCGGGCCGAGGACCGGUACGGCCGCCACUCGGGUCUGAGAGAGGUUAUCAAAGAUAGCCAA [Omei KL Tryp A SS A v9]	141 nM
GUAUCGCUAGGAGGAUAUUUCAAAUAAUAAAUAAAUGGAUAUACGGAGUGAUGUUCCGAUUUACGGAAAGAAGGCCUAGUGAUAC [FMN B 1]	190 nM
GAGAUAGAGGCGGCCGCCACUAGUGAUGUUAGUGAUGUUAGAAAGAGAAUAGAACAGGGAUUUGAUAGGACCGGGCCAGAUGGAG [wwemullin]	48.7 nM
UGUACCGAGUCAGGAUAUGCCGUCGAAAGACGAAAGCAGUGAUGUUGCAUCGAUCGAAAGAUCGUUGCAGAAGGGACUUGGUACU [FmnBS 23 #SwitchBubble #StaticStem #DoubleMagnetSystem]	158 nM
UUUAUAAAGUCGGCCGCCACUGGAUUUAUAUUUGUUUAGUCUGGAUCAAAGUGAUGUUUUGAGUCCAGGACCGGGACAUUUGUUA [whbob_Ex_Tryp_B_w36]	91.9 nM
AGAGAUAUAUGAGGAUAUGAGAUAGUUAAUGAGUGAGUUAUAGUGUUGUUUGGUUAGUGAUGUUAUUUAGAAGGCGUGAGUGAUG [immumullin]	119 nM
AUUAAUAUCACGGCCGCCACUGUAUAUUGUUUUUAUAUUUAGAAUAAUUGCCAGUGAUGUUGGAACAGGACCGGGUGAGUUUAUA [#28 K4 Tryptophan B Same State]	402 nM
UUAGUCUAGAGAAGGAGCGCAGUGAUGUUGCGAAUAAUAAUAAUAAUAAAUAAAUAAUCGAUGCAGGUAGGUCGCUCUAGACAUU [AK1 Exc Arginine B]	335 nM
GAUAUAGUGAUGUUAUAUACUGAUAGACAACGAGGACCGGUACGGCCGCCACUCGAGAGGGUGAAAAUGAUGAUAAAAUAAUAAU [#01 K4 Tryptophan A Exclusion]	374 nM
CCAACGUGAAAAGGAUAUCGCGAUGUGCACGACUAGUGAUGUUAGGAGAGGCUCGUUGAAUUGUACCGAGAAGGUUUUGAGUGGG [theeternabot_sameState_KL_FMN_B_16]	231 nM
GCGGCGGGCCAAGGAUAUAUAUUGGAGUGAUGUUGUUCAUUUAUUUGAGCUAGUGAUGUUGGUCAAAUAGAAGGUGGCCCGCCGC [whbob_Ex_FMNB__2th217]	44.8 nM
AGACUACUGAUAGGAUAUAACAUCCUAGUCGUAUACCGAAAGGUAUACGAUUCCCUUCUAGUGAUGUUAGAAGGGUCGGUAGUCA [Omei KL FMN B Exc B v12]	60.9 nM
